Measurements: PMC3299411 (Molecular Cell, 2011)
Blank lines part the entries; values can stand above or below the molecule they belong to.

Tests used:
Assay in all cases: cross-linking
[1] = target: H3 (Drosophila (endogenous in S2 cells)) (UniProt P02299)
[2] = target: T1, endogenous CID (Drosophila (endogenous in S2 cells)), Q9V6Q2; conditions: remark: other sources report otherwise
T1 chain: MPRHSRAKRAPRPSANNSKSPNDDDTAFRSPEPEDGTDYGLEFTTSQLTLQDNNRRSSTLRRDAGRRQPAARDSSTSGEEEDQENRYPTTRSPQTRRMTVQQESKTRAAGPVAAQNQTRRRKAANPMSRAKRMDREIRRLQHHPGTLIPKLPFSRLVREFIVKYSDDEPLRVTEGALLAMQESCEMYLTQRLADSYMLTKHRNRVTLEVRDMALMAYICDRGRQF

[3] = target: the molecule itself
[4] = target: T2, FLAG-CID (N-terminally FLAG-tagged CID, wild type) (Drosophila), Q9V6Q2; conditions: remark: other sources report otherwise
T2 chain: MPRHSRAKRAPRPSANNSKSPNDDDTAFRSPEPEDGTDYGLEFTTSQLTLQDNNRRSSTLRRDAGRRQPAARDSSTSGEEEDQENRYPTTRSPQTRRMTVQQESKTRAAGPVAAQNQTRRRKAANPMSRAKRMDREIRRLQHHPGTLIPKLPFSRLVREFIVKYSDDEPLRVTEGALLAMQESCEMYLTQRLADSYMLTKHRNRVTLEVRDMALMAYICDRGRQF

stoichiometry N [1]: 2
Molecule: H3 (from UniProt P02299 1-136) (natural protein)

stoichiometry N [2]: 2
B1: endogenous CID, Q9V6Q2 1-225 (natural protein)
chain: MPRHSRAKRAPRPSANNSKSPNDDDTAFRSPEPEDGTDYGLEFTTSQLTLQDNNRRSSTLRRDAGRRQPAARDSSTSGEEEDQENRYPTTRSPQTRRMTVQQESKTRAAGPVAAQNQTRRRKAANPMSRAKRMDREIRRLQHHPGTLIPKLPFSRLVREFIVKYSDDEPLRVTEGALLAMQESCEMYLTQRLADSYMLTKHRNRVTLEVRDMALMAYICDRGRQF

B2: FLAG-CID^D211A (natural protein, Drosophila, UniProt Q9V6Q2 1-225, looked up)
chain: MPRHSRAKRAPRPSANNSKSPNDDDTAFRSPEPEDGTDYGLEFTTSQLTLQDNNRRSSTLRRDAGRRQPAARDSSTSGEEEDQENRYPTTRSPQTRRMTVQQESKTRAAGPVAAQNQTRRRKAANPMSRAKRMDREIRRLQHHPGTLIPKLPFSRLVREFIVKYSDDEPLRVTEGALLAMQESCEMYLTQRLADSYMLTKHRNRVTLEVRAMALMAYICDRGRQF
ratio dimer:monomer after crosslinking [3]: < 3

ratio dimer:monomer after crosslinking [4]: > 55 | stoichiometry N [4]: 2
B3: FLAG-CID (N-terminally FLAG-tagged CID, wild type), Q9V6Q2 1-225 (natural protein)
chain: MPRHSRAKRAPRPSANNSKSPNDDDTAFRSPEPEDGTDYGLEFTTSQLTLQDNNRRSSTLRRDAGRRQPAARDSSTSGEEEDQENRYPTTRSPQTRRMTVQQESKTRAAGPVAAQNQTRRRKAANPMSRAKRMDREIRRLQHHPGTLIPKLPFSRLVREFIVKYSDDEPLRVTEGALLAMQESCEMYLTQRLADSYMLTKHRNRVTLEVRDMALMAYICDRGRQF
